The chains are these.
B1: anti-EGFL7 mumab 4F11.1.8 (antibody, IgG2b, V domains shown)
VH: QIQLVQSGPELKKPGETVKISCKASGHTFTTYGMSWVKQAPGKGLKWMGWINTHSGVPTYADDFKGRFAFSLETSASTAHLQINNLKNEDTATYFCARLGSSAVDYWGQGTTVTVSS
VL: DIVLTQSPASLAVSLGQRATISCKASQSVDYDGDSYMSWYQQKPGQPPKLLIYGASNLESGIPARFSGSGSGTDFTLNIHPVEEEDAATYYCQQNNEDPYTFGGGTKVEIKR
notes: ATCC PTA-7343

The target of experiment [1] is B1. As to the kind of experiment: peptide competition at 10-fold molar excess with EGFL7 protein; immunoprecipitation and SDS-PAGE.
Experiment [2] concerns the target T1, recombinant human EGFL7 (human, UniProt Q9UHF1 24-273, limits assumed).
T1 construct: Produced in E. coli and His6/poly-His-tagged; also called hEGFL7; poly-His-tagged EGFL7
T1 sequence (looked up): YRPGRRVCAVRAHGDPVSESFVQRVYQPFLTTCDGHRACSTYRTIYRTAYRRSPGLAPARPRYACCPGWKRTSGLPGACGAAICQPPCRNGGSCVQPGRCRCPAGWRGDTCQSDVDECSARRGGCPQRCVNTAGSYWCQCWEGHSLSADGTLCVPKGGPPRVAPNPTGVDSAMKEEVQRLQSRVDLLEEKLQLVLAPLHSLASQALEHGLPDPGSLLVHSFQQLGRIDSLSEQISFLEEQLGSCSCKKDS
As to the kind of experiment: SPR, BIAcore 3000, room temperature; antibody on CM5 chip, poly-His-tagged EGFL7 injected; 1:1 global fit; Mab stock in 50 mM Tris/125 mM NaCl. Here is the method: (§1) Binding affinity of the Mabs for both human and mouse EGFL7 was determined by surface plasmon resonance using Pharmacia BIAcore® 3000 (BIAcore AB, Uppsala, Sweden) at room temperature (see, e.g., Morton et al., Meth. Enzymol. 295:268-94 (1998)). Anti-EGFL7 antibodies were immobilized to the sensor chip (CM5) through primary amine groups. The carboxymethylated sensor chip surface matrix was activated by injecting 20 μl of a mixture of 0.025 M N-hydroxysuccinimide and 0.1 M N-ethyl-N′(dimethylaminopropyl) carbodiimide at 5 μl/min 5-10 μl of 10 μg/ml solution of […] in 10 mM sodium acetate, pH 4.5, were injected at 5 μl/min After coupling, unoccupied sites on the chip were blocked by injecting 20 μl of 1M ethanolamine, pH 8.5. The running buffer was PBS containing 0.05% polysorbate 20. For kinetic measurements, two-fold serial dilutions of poly-His-tagged EGFL7 in running buffer were injected over the flow cells for 3 minutes at a flow rate of 30 μl/min and the bound polyhis tagged EGFL7 was allow to dissociate for 20 minutes. The binding surface was regenerated by injecting 20 μl of 10 mM glycine.HCl (pH 1.5). […] There was no significant non-specific binding of poly-His-tagged EGFL7 to flow cell one. For calculating apparent binding affinity, data were analyzed using a 1:1 binding model using global fitting. […]
In general terms: SPR reads the build-up and loss of mass on a sensor chip optically.

Experiment [3] concerns the target T2, recombinant mouse EGFL7 (mouse, UniProt Q9QXT5 22-275, limits assumed).
T2 construct: also called mEGFL7; poly-His-tagged EGFL7
T2 sequence (looked up): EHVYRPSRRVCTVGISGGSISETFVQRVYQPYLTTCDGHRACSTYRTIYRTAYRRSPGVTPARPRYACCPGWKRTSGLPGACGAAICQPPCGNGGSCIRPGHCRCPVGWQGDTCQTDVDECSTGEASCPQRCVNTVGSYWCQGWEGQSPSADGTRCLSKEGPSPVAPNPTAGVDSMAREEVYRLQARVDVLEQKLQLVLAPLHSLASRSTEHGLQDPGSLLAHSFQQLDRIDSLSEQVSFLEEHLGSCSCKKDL
The experiment is described as above. Here is the method:
as §1

As for RPRYACCPGWKRT [polypeptide p2], in experiment [1], the binding result was “binds”.
The term Kd denotes the equilibrium constant for the complex coming apart. Regarding B1, the Kd in experiment [2] is 0.473 nM; in experiment [3], 0.756 nM.
